PMC5372565, “Proline Residues as Switches in Conformational Changes Leading to Amyloid Fibril Formation” (International Journal of Molecular Sciences, 2017)
Positions count from the first letter of the chain named. In names and notes the source's numbering stands. Several values for one entry are separate records, joined by “and”; a condition that tells them apart may be missing. Equal values may be shown once. One block for each molecule: values may come before it.

Columns and labels:
[1] = biological target: stefin B-Y31 P79S mutant (human) (UniProt P04080); test: SEC; Y31 variant and its mutants; conditions not told for this experiment
P04080 [2] = test: as above
P04080 [3] = test: SEC; Superdex 75 FPLC column, 0.5 mL/min, typically 100 uL of 50 uM protein, 10 mM potassium phosphate pH 7.0, 0.15 M NaCl; samples frozen and unfrozen once; percentages estimated from the surface area of the peaks
[4] = biological target: the molecule itself; test: as above
[5] = biological target: the molecule itself; test: SEC; Y31 variant and its mutants; conditions not told for this experiment
P04080 [6] = test: as above; remark: listed apart in the source

stoichiometry N [1]: 2
Molecule: stefin B-Y31 P79S mutant (from UniProt P04080 4-98) (natural protein)

Molecule: stefin B-Y31 P79S mutant
percent dimers (SEC) (P04080 [2]): 100% were dimeric

B1: stefin B P79S mutant (of the wt C3S E31-stefin B) (natural protein, human, UniProt P04080 1-98, looked up)
chain: MMSGAPSATQPATAETQHIADQVRSQLEEKENKKFPVFKAVSFKSQVVAGTNYFIKVHVGDEDFVHLRVFQSLPHENKSLTLSNYQTNKAKHDELTYF
notes: human stefin B (cystatin B), 98 amino acids, E31 variant, C3S, with P79S
percent dimers (SEC peak area) (P04080 [3]): 55% dimers | percent higher molecular weight species (SEC peak area) (P04080 [3]): 15% of higher molecular weight species | percent tetramers (SEC peak area) (P04080 [3]): around 30% tetramers | stoichiometry N [4]: 4 and 2

B2: stefin B-Y31 P36G mutant (natural protein, human, UniProt P04080 1-98, looked up)
chain: B1 chain with E31Y, P36G, S79P
notes: human stefin B (cystatin B), 98 amino acids, variant with Y at site 31, with P36G; Cys 3 changed to Ser 'for all in vitro studies'
stoichiometry N [5]: 2 | percent monomers (SEC) (P04080 [6]): 70% and 75% of molecules were monomers, respectively and the rest were dimers

B3: stefin B P6L mutant (of the wt C3S E31-stefin B) (natural protein, human, UniProt P04080 1-98, looked up)
chain: B1 chain with P6L, S79P
notes: human stefin B (cystatin B), 98 amino acids, E31 variant, C3S, with P6L
binding result [4]: binds

B4: stefin B P36D mutant (of the wt C3S E31-stefin B) (natural protein, human, UniProt P04080 1-98, looked up)
chain: B1 chain with P36D, S79P
notes: human stefin B (cystatin B), 98 amino acids, E31 variant, C3S, with P36D
stoichiometry N [4]: 2 and 4

B5: stefin B P11S mutant (of the wt C3S E31-stefin B) (natural protein, human, UniProt P04080 1-98, looked up)
chain: B1 chain with P11S, S79P
notes: human stefin B (cystatin B), 98 amino acids, E31 variant, C3S, with P11S
binding result [4]: binds

B6: stefin B P74S mutant (of the wt C3S E31-stefin B) (protein)
chain: B1 chain with P74S, S79P
percent oligomers (SEC) (P04080 [3]): The tendency to form oligomers is high for the P74S mutant of the wt (>50%)

B7: stefin B-Y31 variant (with Y at site 31) (natural protein, human, UniProt P04080 1-98, looked up)
chain: B1 chain with E31Y, S79P
notes: human stefin B (cystatin B), 98 amino acids, variant with Y at site 31; Cys 3 changed to Ser 'for all in vitro studies'
stoichiometry N [5]: 2 | percent monomers (SEC) (P04080 [6]): 70% and 75% of molecules were monomers, respectively and the rest were dimers

B8: wild-type like C3S E31-stefin B (human) (natural protein, UniProt P04080 1-98, looked up)
chain: B1 chain with S79P
notes: human stefin B (cystatin B), 98 amino acids, E31 variant, Cys 3 changed to Ser; also called wt stefin B; wt
percent dimers (SEC peak area) (P04080 [3]): 65% dimers | percent higher oligomers (SEC peak area) (P04080 [3]): 10% of higher oligomers | percent monomers (SEC peak area) (P04080 [3]): 5% monomers | percent tetramers (SEC peak area) (P04080 [3]): 20% tetramers | stoichiometry N [4]: 2 and 4
